We go through 167 variants from the RNAGym collection of RNA variant scans (doi:10.7554/elife.80360).

Sequences and labels used below:
B1: Hammerhead Ribozyme (parent)
chain: ACCGGAUGUGCUUUCCGGUCUGAUGAGUCCGUGAGGACGAAACAG

The data set covers variants of B1. The experiment in a line: self-cleavage, relative activity (ratio to wild type); higher = more cleavage; co-transcriptional.
Regarding A1G A42U, the self-cleavage was found to be 0.425.

Take A1G A42C: the self-cleavage was 0.361.

With A1G A42G, the self-cleavage was 0.344.

Turning to A1C C3U, the self-cleavage is 0.345.

With A1C C3G, the self-cleavage was 0.549.

Take A1C C3A: the self-cleavage amounted to 0.426.

With A1C C16G, the self-cleavage worked out at 0.351.

A1C C16U: the self-cleavage came to 0.347.

A1C C16A: the self-cleavage stood at 0.453.

As to A1C C30A, the self-cleavage was 0.4.

For the variant A1C C30G, the self-cleavage is 0.34.

On to A1C C30U, for which the self-cleavage amounted to 0.364.

Consider A1C A23C, for which the self-cleavage turned out to be 0.287.

For the variant A1C A23G, the self-cleavage was found to be 0.326.

In the case of A1C A23U, the self-cleavage was 0.362.

Regarding A1C G4U, the self-cleavage is 0.353.

Regarding A1C G4C, the self-cleavage was 0.472.

With A1C G4A, the self-cleavage is 0.406.

A1C A42U: the self-cleavage stood at 0.322.

A1C A42C: the self-cleavage came to 0.336.

As to A1C A42G, the self-cleavage turned out to be 0.367.

On to A1C C20A, for which the self-cleavage is 0.349.

As for A1C C20G, the self-cleavage amounted to 0.354.

Take A1C C20U: the self-cleavage worked out at 0.376.

For A1C A26C, the self-cleavage came out at 0.338.

In the case of A1C A26G, the self-cleavage is 0.302.

In the case of A1C A26U, the self-cleavage is 0.352.

Consider A1C U14A, for which the self-cleavage was 0.348.

A1C U14G: the self-cleavage was 0.426.

In the case of A1C U14C, the self-cleavage was 0.331.

Consider A1C G45A, for which the self-cleavage was found to be 0.578.

With A1C G45U, the self-cleavage is 0.437.

Consider A1C G45C, for which the self-cleavage was 0.441.

Turning to A1G A34U, the self-cleavage turned out to be 1.47.

On to A1G A34C, for which the self-cleavage was determined as 1.1.

A1G A34G: the self-cleavage was 1.5.

Turning to A1C U7G, the self-cleavage amounted to 0.377.

Take A1C U7A: the self-cleavage turned out to be 0.29.

With A1C U7C, the self-cleavage amounted to 0.38.

For A1C G10C, the self-cleavage is 0.397.

For the variant A1C G10U, the self-cleavage stood at 0.339.

As to A1C G10A, the self-cleavage worked out at 0.38.

As to A1C U32A, the self-cleavage was found to be 0.363.

On to A1C U32G, for which the self-cleavage was 0.302.

A1C U32C: the self-cleavage is 0.514.

For the variant A1C A41U, the self-cleavage is 0.341.

Turning to A1C A41G, the self-cleavage was found to be 0.328.

For A1C A41C, the self-cleavage was 0.372.

In the case of A1C G33A, the self-cleavage was 0.57.

Consider A1C G33U, for which the self-cleavage was found to be 0.561.

Consider A1C G33C, for which the self-cleavage was found to be 0.321.

A1C G17A: the self-cleavage stood at 0.391.

In the case of A1C G17U, the self-cleavage was 0.346.

In the case of A1C G17C, the self-cleavage was 0.391.

Turning to A1C U13G, the self-cleavage turned out to be 0.556.

On to A1C U13C, for which the self-cleavage was found to be 0.513.

Consider A1C U13A, for which the self-cleavage turned out to be 0.557.

As for A1G A40C, the self-cleavage was found to be 0.691.

Take A1G A40G: the self-cleavage was found to be 0.388.

Regarding A1G A40U, the self-cleavage is 0.458.

Turning to A1G C3G, the self-cleavage is 0.586.

For the variant A1G C3U, the self-cleavage stood at 1.34.

With A1G C3A, the self-cleavage was determined as 0.699.

On to A1C A37U, for which the self-cleavage came out at 0.34.

With A1C A37G, the self-cleavage worked out at 0.348.

For the variant A1C A37C, the self-cleavage was 0.404.

For the variant A1C A34U, the self-cleavage was 0.384.

On to A1C A34C, for which the self-cleavage worked out at 0.477.

Consider A1C A34G, for which the self-cleavage turned out to be 0.385.

For the variant A1C A40C, the self-cleavage was 0.446.

A1C A40U: the self-cleavage came to 0.484.

For the variant A1C A40G, the self-cleavage amounted to 0.298.

Take A1C: the self-cleavage is 0.466.

As for A1G, the self-cleavage was determined as 1.79.

In the case of A1C G39U, the self-cleavage came out at 0.341.

As to A1C G39A, the self-cleavage worked out at 0.438.

Regarding A1C G39C, the self-cleavage amounted to 0.344.

Consider A1C G8A, for which the self-cleavage is 0.409.

Regarding A1C G8U, the self-cleavage was determined as 0.465.

For the variant A1C G8C, the self-cleavage is 0.432.

In the case of A1C C2G, the self-cleavage amounted to 0.524.

For A1C C2A, the self-cleavage came out at 1.75.

Turning to A1C C2U, the self-cleavage was found to be 2.17.

As to A1C C43U, the self-cleavage is 0.5.

For the variant A1C C43A, the self-cleavage turned out to be 0.295.

For the variant A1C C43G, the self-cleavage was 0.285.

A1C U19C: the self-cleavage was 0.365.

In the case of A1C U19G, the self-cleavage is 1.12.

Take A1C U19A: the self-cleavage was 0.344.

Take A1C U28C: the self-cleavage worked out at 0.405.

Take A1C U28G: the self-cleavage is 0.302.

A1C U28A: the self-cleavage turned out to be 0.389.

Turning to A1C G18C, the self-cleavage was determined as 0.399.

A1C G18U: the self-cleavage was determined as 0.353.

For the variant A1C G18A, the self-cleavage worked out at 0.434.

Regarding A1C U21G, the self-cleavage was found to be 0.337.

As for A1C U21C, the self-cleavage was found to be 0.293.

With A1C U21A, the self-cleavage turned out to be 0.343.

With A1C G27A, the self-cleavage was 0.332.

A1C G27U: the self-cleavage was 0.328.

Regarding A1C G27C, the self-cleavage came to 0.357.

Take A1C C38G: the self-cleavage stood at 0.39.

Regarding A1C C38U, the self-cleavage amounted to 0.495.

Turning to A1C C38A, the self-cleavage was 0.408.

As for A1C G25C, the self-cleavage was found to be 0.313.

Take A1C G25A: the self-cleavage came out at 0.255.

As for A1C G25U, the self-cleavage is 0.377.

Consider A1G C11A, for which the self-cleavage was 2.06.

Consider A1G C11G, for which the self-cleavage worked out at 2.12.

For the variant A1C U9C, the self-cleavage is 0.394.

For A1C U9A, the self-cleavage was 0.399.

Take A1C U9G: the self-cleavage amounted to 0.346.

Regarding A1C C29G, the self-cleavage was found to be 0.341.

Turning to A1C C29A, the self-cleavage was 0.31.

Regarding A1C C29U, the self-cleavage was found to be 0.402.

Regarding A1C C11G, the self-cleavage came to 0.395.

As to A1C C11U, the self-cleavage stood at 0.411.

Regarding A1C C11A, the self-cleavage was determined as 0.36.

For A1G A41C, the self-cleavage turned out to be 0.461.

For A1G A41U, the self-cleavage is 0.42.

Regarding A1G A41G, the self-cleavage is 0.436.

Turning to A1C G36C, the self-cleavage came to 0.365.

Take A1C G36A: the self-cleavage was 0.394.

Take A1C G36U: the self-cleavage was determined as 0.401.

With A1C U12C, the self-cleavage is 0.373.

With A1C U12A, the self-cleavage is 0.471.

Turning to A1C U12G, the self-cleavage stood at 0.325.

For A1C G35C, the self-cleavage was 0.406.

As to A1C G35A, the self-cleavage is 0.404.

Regarding A1C G35U, the self-cleavage was 0.435.

As for A1C C15G, the self-cleavage was 0.43.

In the case of A1C C15A, the self-cleavage came to 0.497.

Consider A1C C15U, for which the self-cleavage was found to be 0.408.

For the variant A1C G5A, the self-cleavage was found to be 0.483.

As for A1C G5U, the self-cleavage is 0.444.

With A1C G5C, the self-cleavage worked out at 0.286.

In the case of A1G A44U, the self-cleavage turned out to be 0.968.

Turning to A1G A44C, the self-cleavage came out at 0.858.

On to A1G A44G, for which the self-cleavage came to 2.11.

As to A1G A26C, the self-cleavage is 0.571.

Take A1G A26U: the self-cleavage was 0.971.

Regarding A1G A26G, the self-cleavage is 0.397.

A1C G31U: the self-cleavage came out at 0.561.

As for A1C G31A, the self-cleavage was 0.454.

With A1C G31C, the self-cleavage stood at 0.503.

In the case of A1C U24A, the self-cleavage turned out to be 0.471.

For the variant A1C U24C, the self-cleavage came out at 0.34.

Take A1C U24G: the self-cleavage was 0.368.

In the case of A1G A6C, the self-cleavage was 0.838.

For A1G A6G, the self-cleavage amounted to 1.5.

Turning to A1G A6U, the self-cleavage worked out at 1.08.

For the variant A1G A37C, the self-cleavage was determined as 1.64.

Turning to A1G A37U, the self-cleavage came out at 1.02.

For the variant A1G A37G, the self-cleavage is 1.23.

Regarding A1C A6C, the self-cleavage worked out at 0.393.

As to A1C A6U, the self-cleavage came out at 0.381.

On to A1C A6G, for which the self-cleavage came to 0.417.

As for A1C G22A, the self-cleavage was determined as 0.396.

For A1C G22U, the self-cleavage was found to be 0.466.

For the variant A1C G22C, the self-cleavage was 0.352.

As to A1G C2A, the self-cleavage was determined as 0.881.

As to A1G C2U, the self-cleavage was 2.07.

For A1G C2G, the self-cleavage stood at 0.735.

Turning to A1C A44U, the self-cleavage came to 0.377.

A1C A44G: the self-cleavage is 0.594.

Turning to A1C A44C, the self-cleavage is 0.376.

Consider A1G A23C, for which the self-cleavage was found to be 0.96.
